{"source": "patent US20230340137A1", "about": "“METHODS, THERAPIES AND USES FOR TREATING CANCER” (PFIZER INC., priority 2020, published 2023)", "key": {"[1]": {"tested_on": "adult patients with advanced multiple myeloma", "test": "Phase 1 clinical study NCT03269136, safety (DLT, CRS)", "type": "in vivo", "source_text": "This Example illustrates an ongoing Phase 1 open-label, multicenter clinical study of PF-06863135 (BCMA×CD3 bispecific) as monotherapy and in combination with sasanlimab, lenalidomide or pomalidomide, in adult patients with advanced multiple myeloma who have relapsed from or are refractory to standard therapy. The study has been registered on ClinicalTrials.gov with identifier NCT03269136 and was first posted August 2017. Study results for Part 1 of the trial and additional arms for the study are described in this Example.\nPart 1 of the Study is the […] single agent dose escalation arm at the dose levels of 0.1, 0.3, 1, 3, 10, 30, and 50 μg/kg Q1W by intravenous (IV) administration, and at the dose levels of 80, 130, 215, 360, 600 and 1000 μg/kg Q1W by subcutaneous (SC) administration. Upon reaching maximum tolerated dose (MTD)/maximum administered dose (MAD), patients can be treated at a dose level selected from the foregoing dose levels described in this paragraph, and below the MTD/MAD fora Q2W administration, both IV and SC, to further support the recommended phase 2 dose (RP2D) decision. For the study, dose limiting toxicity observation period is set at 21 days for Q1W dosing and 28 days for Q2W dosing. The treatment cycle, aka cycle, for Q1W dosing would be 3 weeks, and for Q2W dosing would be four weeks.\nClinical Outcome of Part 1 of the Study. As of 15 Apr. 2020, a total of 23 patients were enrolled in Part 1 of the study and had been treated with PF-06863135 administered intravenously (IV) at 0.1 (N=2), 0.3 (N=3), 1 (N=2), 3 (N=3), 10 (N=2), 30 (N=5), and 50 (N=6) μg/kg. As of Aug. 21, 2020, a total of 30 patients were enrolled in Part 1 of the study and had been treated with PF-06863135 administered subcutaneously (SC) at 80 (N=6), 130 (N=4), 215 (N=4), 360 (N=4), 600 (N=6) and 1000 (N=6) μg/kg. Safety and efficacy data were available for in 23 IV and 30 SC treated patients per IMWG (International Myeloma Working Group) criteria.\nPart 1.1 of the Study is an alternative maintenance dose escalation arm for single agent PF-06863135. If excessive toxicity occurs or the maximum tolerated dose (MTD)/maximum administered dose (MAD) is reached at a dose level that is earlier than desired in Part 1 of the study described above, a priming dose will be administered one week prior to the day 1 cycle 1 administration of the dose (maintenance dose) at this dose level and for all subsequent dose levels in the dose escalation that may be initiated for Part 1.1. The priming dosing will be at a lower dose level than the maintenance dose.\nClinical outcome of Part 1.1 of the Study. As of Feb. 4, 2021, a total of 20 patients were enrolled and treatment in Part 1.1 of the Study, with cohort of 7 patients at a 600 μg/kg priming dose followed by 1000 μg/kg Q1W dosing, and a cohort of 13 patients at a 600 μg/kg priming dose followed by 1000 μg/kg Q2W dosing. The CRS in these two cohorts is described in Table 13. Introducing of priming dose decreased medium duration of CRS by 50%, from 4 days to 2 days. The dose frequency in part 1.1 of the study (Q1W v. Q2W) had no impact on the CRS. Patient response of Part 1.1 of the Study is described in Table 14."}, "[2]": {"tested_on": "CD8+ T cells co-cultured with MM.1S multiple myeloma cells", "test": "PD-1 induction on CD8+ T cells co-cultured with MM.1S-luc cells, flow cytometry", "type": "cell-based, human", "conditions": "1 nM BCMAxCD3 bispecific", "procedure": "CD3+ T cells from PBMCs (Stem Cell Technologies) were negatively selected using EasySep Human T cell enrichment kit (Stem Cell Technologies). 10,000 target Multiple Myeloma MM.1S cells expressing luciferase (MM.1S-luc) were seeded with 50,000 CD3^+ pan T cells in a clear 96-well V-bottom plate. Cells were treated with 1 nM BCMAxCD3 bispecific antibody and PD-1 expression was analyzed at 3, 24, 48 and 72 hours after addition of the BCMAxCD3 bispecific. At the specified time points, cells were collected from the wells, washed with PBS+2% FBS, and stained with ZombieNlR Viability dye (Biolegend) in PBS for 20 minutes at room temperature, followed by staining with antibodies against human CD8 and PD-1 (Biolegend). Samples were analyzed using FlowJo flow cytometry analysis software. Dead cells were removed from analysis by gating on ZombieNlR negative population. Samples were further gated on CD8^+ positive population. Percentage of PD-1^+ cells is expressed as PD-1 positive cells within the CD8^+ population."}, "[3]": {"conditions": "600 μg/kg priming, 1000 μg/kg Q1W or Q2W SC, N = 20"}, "[4]": {"conditions": "all SC treated patients (Part 1)"}}, "data": [{"substance": "PF-06863135: heterodimeric humanized full-length bispecific antibody, one BCMA binding arm and one CD3 binding arm, modified human IgG2Δa Fc", "values": [{"measurement": "Patients with CRS (number)", "setting": "[1]; 10 μg/kg IV cohort", "result": 1}, {"measurement": "patients with CRS (percent)", "setting": "[1]; 10 μg/kg IV cohort", "result": 50.0, "unit": "%"}, {"measurement": "Patients with CRS (number)", "setting": "[1]; 30 μg/kg IV cohort", "result": 4}, {"measurement": "patients with CRS (percent)", "setting": "[1]; 30 μg/kg IV cohort", "result": 80.0, "unit": "%"}, {"measurement": "patients with dose limiting toxicities (DLTs)", "setting": "[1]; 30 μg/kg IV cohort", "result": 1, "unit": "patient"}, {"measurement": "patients in whom CRS also occurred after second, third or fourth dose", "setting": "[1]; 50 μg/kg IV", "result": 3, "unit": "patients"}, {"measurement": "Patients with CRS (number)", "setting": "[1]; 50 μg/kg IV cohort", "result": 6}, {"measurement": "patients with CRS (percent)", "setting": "[1]; 50 μg/kg IV cohort", "result": 100.0, "unit": "%"}, {"measurement": "patients with dose limiting toxicities (DLTs)", "setting": "[1]; 50 μg/kg IV cohort", "result": 1, "unit": "patient"}, {"measurement": "CRS Grade 1 (number of patients)", "setting": "[1]; 80 μg/kg Q1W SC, N = 6", "result": 2}, {"measurement": "CRS Grade 2 (number of patients)", "setting": "[1]; 80 μg/kg Q1W SC, N = 6", "result": 1}, {"measurement": "CRS Mean duration", "setting": "[1]; 80 μg/kg Q1W SC, N = 6", "result": 1, "unit": "days"}, {"measurement": "Patients with CRS (number)", "setting": "[1]; 80 μg/kg Q1W SC, N = 6", "result": 3}, {"measurement": "CRS Grade 1 (number of patients)", "setting": "[1]; 130 μg/kg Q1W SC, N = 4", "result": 2}, {"measurement": "CRS Grade 2 (number of patients)", "setting": "[1]; 130 μg/kg Q1W SC, N = 4", "result": 0}, {"measurement": "CRS Mean duration", "setting": "[1]; 130 μg/kg Q1W SC, N = 4", "result": 3, "unit": "days"}, {"measurement": "Patients with CRS (number)", "setting": "[1]; 130 μg/kg Q1W SC, N = 4", "result": 2}, {"measurement": "CRS Grade 1 (number of patients)", "setting": "[1]; 215 μg/kg Q1W SC, N = 4", "result": 3}, {"measurement": "CRS Grade 2 (number of patients)", "setting": "[1]; 215 μg/kg Q1W SC, N = 4", "result": 0}, {"measurement": "CRS Mean duration", "setting": "[1]; 215 μg/kg Q1W SC, N = 4", "result": 3, "unit": "days"}, {"measurement": "Patients with CRS (number)", "setting": "[1]; 215 μg/kg Q1W SC, N = 4", "result": 3}, {"measurement": "CRS Grade 1 (number of patients)", "setting": "[1]; 360 μg/kg Q1W SC, N = 4", "result": 2}, {"measurement": "CRS Grade 2 (number of patients)", "setting": "[1]; 360 μg/kg Q1W SC, N = 4", "result": 1}, {"measurement": "CRS Mean duration", "setting": "[1]; 360 μg/kg Q1W SC, N = 4", "result": 1.7, "unit": "days"}, {"measurement": "Patients with CRS (number)", "setting": "[1]; 360 μg/kg Q1W SC, N = 4", "result": 3}, {"measurement": "CRS Grade 1 (number of patients)", "setting": "[1]; 600 μg/kg Q1W SC, N = 6", "result": 4}, {"measurement": "CRS Grade 2 (number of patients)", "setting": "[1]; 600 μg/kg Q1W SC, N = 6", "result": 2}, {"measurement": "CRS Mean duration", "setting": "[1]; 600 μg/kg Q1W SC, N = 6", "result": 1.7, "unit": "days"}, {"measurement": "Patients with CRS (number)", "setting": "[1]; 600 μg/kg Q1W SC, N = 6", "result": 6}, {"measurement": "decrease of duration of CRS by introducing priming dose", "setting": "[1]; 600 μg/kg priming then 1000 μg/kg vs 1000 μg/kg without priming, SC", "result": 50, "unit": "%"}, {"measurement": "CRS Grade 1 (number of patients)", "setting": "[1]; [3]", "result": 11}, {"measurement": "CRS Grade 2 (number of patients)", "setting": "[1]; [3]", "result": 9}, {"measurement": "CRS Mean duration", "setting": "[1]; [3]", "result": 2, "unit": "days"}, {"measurement": "Patients with CRS (number)", "setting": "[1]; [3]", "result": 20}, {"measurement": "patients with CRS (percent)", "setting": "[1]; [3]", "result": "(100%)"}, {"measurement": "CRS Grade 1 (number of patients)", "setting": "[1]; 1000 μg/kg Q1W SC, N = 6", "result": 5}, {"measurement": "CRS Grade 2 (number of patients)", "setting": "[1]; 1000 μg/kg Q1W SC, N = 6", "result": 1}, {"measurement": "CRS Mean duration", "setting": "[1]; 1000 μg/kg Q1W SC, N = 6", "result": 4, "unit": "days"}, {"measurement": "Patients with CRS (number)", "setting": "[1]; 1000 μg/kg Q1W SC, N = 6", "result": 6}, {"measurement": "toxicities", "setting": "[1]; 600 and 1000 μg/kg SC", "result": "tolerable and manageable"}, {"measurement": "patients with dose limiting toxicities (DLTs)", "setting": "[1]; IV cohorts, 23 patients, febrile neutropenia Grade 3 and electrocardiogram QT prolongation Grade 1", "result": 2, "unit": "patients"}, {"measurement": "CRS onset after dosing", "setting": "[1]; IV cohorts, each patient with CRS", "result": "≤ 2", "unit": "days"}, {"measurement": "Cytokine release syndrome (CRS), rank among adverse events", "setting": "[1]; Part 1 of the study", "result": "most common adverse event reported"}, {"measurement": "impact of dose frequency (Q1W v. Q2W) on the CRS", "setting": "[1]; Part 1.1, 600 μg/kg priming, 1000 μg/kg SC", "result": "no impact"}, {"measurement": "patients with dose limiting toxicities (DLTs)", "setting": "[1]; SC cohorts, 30 patients", "result": "No patients"}, {"measurement": "CRS onset after dosing", "setting": "[1]; SC cohorts, primarily", "result": "≤ 2", "unit": "days"}, {"measurement": "Patients with CRS (number)", "setting": "[1]; all IV cohorts", "result": 11, "unit": "patients"}, {"measurement": "patients with maximum Grade 1 CRS (number)", "setting": "[1]; all IV treated patients", "result": 6}, {"measurement": "patients with maximum Grade 1 CRS (percent)", "setting": "[1]; all IV treated patients", "result": 26.1, "unit": "%"}, {"measurement": "patients with maximum Grade 2 CRS (number)", "setting": "[1]; all IV treated patients", "result": 5}, {"measurement": "patients with maximum Grade 2 CRS (percent)", "setting": "[1]; all IV treated patients", "result": 21.7, "unit": "%"}, {"measurement": "patients with maximum Grade 1 CRS (number)", "setting": "[1]; [4]", "result": 18}, {"measurement": "patients with maximum Grade 1 CRS (percent)", "setting": "[1]; [4]", "result": 60.0, "unit": "%"}, {"measurement": "patients with maximum Grade 2 CRS (number)", "setting": "[1]; [4]", "result": 5}, {"measurement": "patients with maximum Grade 2 CRS (percent)", "setting": "[1]; [4]", "result": 16.7, "unit": "%"}, {"measurement": "CRS severity in SC-treated vs IV-treated patients", "setting": "[1]; despite higher overall dose exposure in SC-treated patients", "result": "less severe"}, {"measurement": "timing of CRS relative to doses", "setting": "[1]; results of Part 1 of the Study", "result": "primarily occurs after the initial dose"}, {"measurement": "% PD-1 (of CD8+ T cells)", "setting": "[2]; 3 hours", "result": "12.8 ± 0.6", "unit": "%"}, {"measurement": "% PD-1 (of CD8+ T cells)", "setting": "[2]; 24 hours", "result": "18.9 ± 1.2", "unit": "%"}, {"measurement": "% PD-1 (of CD8+ T cells)", "setting": "[2]; 48 hours", "result": "69.9 ± 3.1", "unit": "%"}, {"measurement": "% PD-1 (of CD8+ T cells)", "setting": "[2]; 72 hours", "result": "69.9 ± 3.1", "unit": "%"}]}]}
